# From the DeepSol protein solubility set
# Assay: soluble on expression in E. coli; label from the status in PepcDB or PDB records
row,Sequence,soluble on expression in E. coli
1,MGSDKIHHHHHHMIITVINGSPRKNGATSKVLTYLYKDIERLIPDVKINYFDLSEVNPSYCIGCLNCYKMGKCINQNDKVEYIHDIITKSDGVIFGSPTYGSSVTGLFKVFTDRAHMMLERLLYRKPCIAVTTYENARGSKAISFIKSMVLDSGGYVCGSLSIKTGFNQNPITEKVESKIQKVSKKFIYCIEEKKNPPVLSQIYNFIAINAVLKPMAFKDIEQYKGIIDRWEEQGII,not soluble
2,MSLSTIRIGGAAVNQTPIDWENNVKNILDAIEEAKNANVEILCLPELCITGYGCEDLFLTDWVAETAIEYCFEIAASCTDITVSLGLPMRIAGITYNCVCLVENGIVKGFSAKQFLANEGVHYETRWFTAWPRNHTTTFLYNDVKYPFGDVLYNVKDARIGFEICEDAWRTDRVGIRHYEKGATLVLNPSASHFAFGKSAIRYDLVIGGSERFDCTYVYANLLGNEAGRMIYDGEVLIAHKGKLIQRNDRLSFKNVNLIYADIATDSAETPETVLTQDDLEKEFEFWEATSLGLFDYMRKSRSKGFVLSLSGGADSSACAIMVAEMIRKGLKELGLTAFLQKSNMETLFDLPALQHLPFEEQAKKITAVFLTTAYQSTRNSGDETYTSAKTLAESIGATFYNWSVDEEIEQYKATIENVIERPLTWEKDDITLQNIQARGRAPIIWMLTNVKQALLITTSNRSEGDVGYATMDGDTAGGIAPIAGVDKDFIRSWLRWAEKNRNQHGLHIVNKLAPTAELRPSEYTQTDERDLMPYDVLARIERKAIKERLSPVQVYTALLTEGPYTKNEFKYWVKKFFRLWSINQWKRERLAPSFHMDDFNIDPRSWYRFPILSSGFAKELNDLDQEGHHHHHH,soluble
3,MGSDKIHHHHHHMLKHLDNITDCRSHINQEHDVIDICFLVLSAVISGAQSWSACHEFGTLELEWLRKYRPFTNGIPSQQSIGRIFRGVSKQSLLDALMSWVNEYRVNTGQSSIAIDGKVLKGAKASASSAALHMVTAYDTGSGLVFSAKSGASKKSELKLVQELLTCLDLKSELLTFDALHCQSQTLDYIAKEGGDCILQVKGNQPKLYEALQAQFTDYIENNPDAECFTETNKGHGRVEKRITFQCPLNLPAEIKMKWSQLKTLIAVERHRKVGNKTSIDTHFYVSSAVLTSEAFGRAIRAHWQTENNQHWLLDKLFQEDKQKMYDEDGASILAILRRWALNLVKLHPAKTSQTQKFNRACWSDDFREEIIFGTGQKV,not soluble
4,MACTAADVVEEDLMSDRIANAQLRGKVMSAEEAAQFVNHGDKVGVSGFTGAGYPKALPTAIAERAKEAHARGDEYMIDLFTGASTAPDCDGVLAEADALRFRTPYQSDPILRSKINDGTTLYADYHLSESGIYVEQGFFGQMNVAIVEAVRITEEGHIVPSSSVGNNVEYLDNAEKIIIEVNSWQSEELEGMADIYRMNKLPNRQPIPITEAGQRIGTTYIDIDLSKVVAVVETDAPDRNAPFKPLDETSKQIAGHFLDFLEGEVAAGRLTYDGYVMQSGVGNVPNAVMAGLLDSKFENIKAYTEVIQDGMVDLIDAGKMTVASATSFSLSPEYAERMNAEAKNYAQKIILRPQQISNHPEVVRRLGLICTNGLIEADIYGNVNSTNVTGSRMMNGVGGSADFTRNGFISSFITPSVAKGGDISAFVPFVSHVDHTEQDVKVLISEYGYADLRGLAPRQRVEKIIAIAHPDYRPLLQDYYDRALAFAKEKKIMQTPHLLGEALSFHQRFQETGSMKK,not soluble
5,MVLDSGTQVYEQAPPRPPAGSPSQHHKLKPSNGNGPPLYPWPESLGMPLALAVPSALQQQTMWQTFSKLHLEQSSHMRRSESTYSVNSTGRRGRGKAPIGRGCDPGGTLRPAASLPHIAKIRKDVGSSSSKSPCMLVALRPTNMDQEREKFFQSHYTYNPQFEYQEPMPMSVLEKYQEASAQFMNQAVGIIEAVLEKFGTYENFEAATGGQLLTKCQIWSTVRKYMQKEGCVGEIVVQLSEDLLSQAVMMVENSRPTLAINLTGARQYWLEGMLRHEIGTHYLRGVNNSRQPWHSTEGRLQYGLQPANPTEEGLASLHSVLFRKQPFLWRAALLYYTIHQAAHMSFRQLFQDLAQYVQDEGVRWEYCVRAKRGQTDTSQPGCFSKDQVYLDGILRILRHRHTIDFQLLTSLGKVSYEDVEQLRPYGVLDNTRVPHFMKDLERYRQQLEHIMTTNRLDEAELGRLLPD,soluble
6,MGSDKIHHHHHHLTNQMVYVYKDGKQVVSSQCVTGCIAKGHGTPTGVYSIFSMDKDRYLRGDGYKSWVNFFVPFNGGIGFHDASWRSTFGGNIYLYSGSHGCINMPYSEVKKLFANVSMGETVIVYGGATSVDGKEQSFTGQDAYSVTEGDASFNLGVTAQDNAKLTYVSDNEWVAKVDESGNVTPVGVGTATITVKSEATAGYRAGTKTITVTVNAKAQPQVQPQKPAQQQPQKPAQQQQPQKPAAKKDASVNVSESDVSLEINGTKKINISVSSDTGATVEVESGDASVATLDSNGNIVAKNEGQVTYKVYTKATGSYNASNVSYVTIKVSKPAEPDDSGADADRE,not soluble
7,LKYMYKIDDDKKYILYCPTWRGNQRKEVTQINLKDLLKYLPENYEIIVKLHPNESHLRTRYNQIDNRIHCYFNELVDIQELYILSECMITDYSSTIFDYIHLNKPVFILQEDEQQYKQSVGFYFDLFEVGDFLKASLNERMLAKQICSTDYINYSKVVHRLMKQDSSKSSEKLMAEILGEPEYPSSSNCKQQIS,not soluble
8,MAFYNSIPLIGKHLKSESRAKKYTSEEFKRLEREYRDHIGLPENSSFSSDAFDKLVSSRVDDFRAFPKTNLPGGLLFHDKLKEANTTEGDNIRDVLSKTVLAPTEKFKTAQKNFTESTSTFKELTKLIPSKFRAQDLVGTMKELTDDARKAIIEQQAHEIQMLKEKLDPQKEGQAGNYVSDFKKALGLKDNDEVKKVTEGLIKELEETHKKQLGEFDKSTSDSLNQLHKASASESSEYLFLANLYENNKEMRQTLEKLYAKERQRKGLPPESTTVQVGISENKIDLNGIKLKDIPVIKSITGREIHQQPDGSFAIQMPMINPFYYQDPRQNVKTDMMLIAQAIKASGYDSIEMNCNFPNSEKVAMERGRQAFAACIEAGFPVDKITINVNGKPMKADELFKEHPKTYQDIMSRASKISKDYEDIKAPKTSTAPVNTVVVKQEIAALRTKQQQEERAQTQPVDEQRHGVTPNNLEHHHHHH,not soluble
9,MGHHHHHHSHMTDPSKLAVAVVCSSNMNRSMEAHNFLAKKGFNVRSYGTGERVKLPGMAFDKPNVYEFGTKYEDIYRDLESKDKEFYTQNGLLHMLDRNRRIKKCPERFQDTKEQFDIIVTVEERVYDLVVMHMESMESVDNRPVHVLNVDVVDNAEDALMGAFVITDMINMMAKSTDLDNDIDELIQEFEERRKRVILHSVLFY,soluble
10,MGSDKIHHHHHHMTPDEVLRIASMHAVRGEYETALSLLRQLHAFIPDDIQVMRALGIVLANSGDHEAALPFLHQVAQRQCTPDNVMGLIKVLGAMRRFPDIDHVCSVVWPHIGDELAFLGEWGYANLLMERFDRALEILGKALALDPHFRPALHNGASALVRSGRGEEAVSMYSRLGRAWASTEAVARDFVGEYAALSQSYDDNPLHHYFSARLVRLVQDARPEAMPDSVLELGCGSGLLSQALPQKPDRLVGIDISPDMLARARTRGAYSSLLCGDLVEVMAGLEEPFDAVMSAGVLCYLPDLRKVFANVARLLSPGGVFAFSVDPVGDDMEIAEMEPGEFAHSRPYLRALAAETGLTEIRIDIDLHRGAPGFWCSFGKAG,not soluble
11,MKRQLILEDGSFFVGEAFGSLKETTGEVVFNTGMTGYQEILTDPSYCGQIVTMTYPLIGNYGINRDDFEAIRPHVHGFIVKEACVKPSNWRGELTLDEYLKEKDIPGLAGIDTRKLTRLIRQYGTLKGMICGLDVDPVEAAAKLRAMEWPRDQVRRVSTKSAYPSPGRGERIVLIDFGMKHGILRELNKRNCDVIVLPYNATAEEVLGWHPDGVMLSNGPGDPKDVPEAIEMIRGILGKVPLFGICLGHQLFALACGANTEKMKFGHRGSNHPVKDLRTGKVAITSQNHGYTVTHESLSGTRLEVTHIALNDGTVEGLRHLDVPAFTVQYHPEASPGPEDANPLFDEFLALIREFNKKGEVIHA,soluble
12,MEHLLAIALGPVQEFIATARRTRDLYAGSRLLSEAAARAAKALAREVGAKNLIFPAPEDEAGLERLAGAGIPNVLLVRVPEGKDPRGLGEQALGAARDYLRERAEEVLGPRRDLLFWREALAQVEDLLEGYYAYLPLEGDYPRARERLMALLAARKNTRDFAPVSWGSPAYKSSLDGARESVLRLPEKEADHLRVRLGLRPGEYLAGPDLLKRWWKAGHGFLSTTHMAALPFWEGVRRAGLEAVLKEALEELGGLVGEEARAEVRHPVLRDTPFGEWDVRLLYESRLEEFPSLAEDPGLLEKARDRLRALWRRLFPKVRVPPGAYYALLHADGDRMGETLDGLPSPEAHRRFSNALALGFAAQVKDIVEAHGGGLVYSGGDDVLALLPLHTALMAARALADRFREAMAPFGREGRAPSLSVGLAVVHHLEPLQDALDLARRAEKWAKEGEPKRNALCVAYSPRSGAERLVRGRWDENPPLTRRLLRYADLLRAGEVPSRAAYELLALVREAGEALSGEALVAEALRILGRKEMKRAYREELEAWLRTGEDVRRLAEELILARPFAEALDQAGVPVESREVWDAH,soluble
13,MKTIVVLGAGYAGLKTVVALQKKLRKEVRIILIDRNPYHYETMRLYEVASGSAPYTRMSYELADVLDKNMNELVVDQVEKIDLKNKTVELTKHKPISYDYCVVGLGFVLSSMGIAGAQENALPMSNVKQAQAIRDHIESEMRAYVKDHDSQHLSIVICGAGFQAIELAGALAQARPCFAQTAGTDPEKITIKMIDGSPRLLPMFQGKLLDYAINLSALEHHHHHH,not soluble
14,MGSDKIHHHHHHMKLRELLSIGDLKKGKILTKEIGLDNEVDSAMVLEAIDIENWSRKNQLILTSFYALHDLPEKELENFFVKMRRIGISGLILKTDRFIKMIPEWFIELCFNYEIPLIKITQDISYEKILFTIYEPLLNYQSHVLRTYYDVRQRFTKLERHYPTVETIMQEFYDIIKLPFALKMLDKHLEISDGDLPHDAIVLSREKLKNSEFTKNDYSLLTLYSHANPKKQLALEVSIFNSYSTNCLLLVYLQDEKVKETDLVIIENAIDVLQEKFNTENLLKKERYTRLNNLADAILQNTPQNPDELNSLLREVQMQELDSYQAIAFSTKDTNTQLMKERIIALLRTLRVKSIFFDQLNYSAVLFNFNESDGKITKLQLSRLLAELLEENDTLTVAVSSLKSREGIKELLIECLDILRFNETFYNGPIVTLADIGVFKNFIREDQLENLDELIPRALYQLAENNYDLFETLYSFFQNNRNYKQTSEAMFLHSKTIRYRLNKVEQLLDIDLANPLQLLNYEIATYIIKMRRRALEKQSNTR,not soluble
15,KGSAFAPGITAGMGVKYKLKPRINVGIEYSFTGLLTDALDALTDKSVWLEDPYKINDSWVKNKDATGALVLRITYDFGLRKTFCNKQ,not soluble
16,MNTMNSVLKYKELALYGGSFDPLHKAHLAIIEQTLELLPSAKLIVLPAYQNPFKKPCFLDAQTRFKELERALKGIDRVLLSDFEIKQERAVPTIESVLHFQKLYHPQTLYLVIGADCLRHLSSWTNAKELLKRVELVVFERIGYEEIQFKGHYHPLKGIDAPISSSAIRASLGV,not soluble
17,MAHHHHHHMVPVKVKWGRETFELTVDLRSTVKCFKEQLQQLTSVPVERQKIMGVKASQCNDNEVTLEAAGVAAGKTLMLIGTAAEVVRATPIVATGNKDSAVQAPASHPAEKQAVGLQNIANTCYMNAAVQMLRLVPEVRDVLNFNANDPIVSELLKLYNTMDTKRDPVVPASLWSILLAHFPTFAEVNEKGHPMQHDSQEALNALLQRINSCLPESHKRLFTGNLSQKMVCKDDPDDQPVLHDVPFLMLSCNIDAEIETLEAGLEAAFNETVKLHSEKLAREALHTRTSRIAAMPEYLFIHMVRFSWRSDIQSKAKILKPVTFPMTLDLHALCAEEYKPELEVERKRVLKRRDIEMERRRAAKNKTKLDDDEAAPAEDASNTAEPINTTVGNHSGYYELCGVISHKGRSADSGHYVFWGKYADQWMVLDDSNTAAVSEEDVKRLRGSGEAHIAYVLMYRSRDPRTKQSVIPL,soluble
